Experimental data as given in US20040063913A1 (Novartis, published 2004).
Values joined by “and” are separate entries in the source; they are usually repeats but may differ in a detail not shown here. Identical values can stand only once.

Legend:
recombinant human IL-1β = biological target: T1, recombinant human IL-1β (human, UniProt P01584 117-269); assay: Biacore competition: ACZ885 immobilized on the chip, recombinant human IL-1β (1 nM) injected with increasing soluble IL-1 receptor type I (0-12 nM); % binding of IL-1β to ACZ885; mean ± SEM, n=4
T1 construct: mature; also called Rec Human IL-1β; recombinant human IL-1beta
Method: Half-maximum values (IC₅₀) were determined graphically using the Origin 6.0 software The mean±SEM is given (n=4).

[1] = biological target: T2, IL-1β derived from rhesus monkeys (rhesus monkey, UniProt P48090 117-269); assay: not named
T2 construct: also called rhesus IL-1β

[2] = biological target: naturally produced IL-1β in conditioned medium from peripheral blood mononuclear cells (human, UniProt P01584 117-269, limits assumed); assay: cell-based or functional assay
Rec Cynomolgus IL-1β = biological target: T3, Rec Cynomolgus IL-1β (cynomolgus, UniProt P79182 117-268); assay: Biacore, ACZ885 immobilized
T3 construct: also called Rec Cynomolgus IL-β; cynomolgous IL-1beta

Rec Human IL-1α = biological target: T4, Rec Human IL-1α (human, UniProt P01583 113-271); assay: Biacore, ACZ885 immobilized
T4 construct: also called human IL-1alpha
T4 sequence (looked up): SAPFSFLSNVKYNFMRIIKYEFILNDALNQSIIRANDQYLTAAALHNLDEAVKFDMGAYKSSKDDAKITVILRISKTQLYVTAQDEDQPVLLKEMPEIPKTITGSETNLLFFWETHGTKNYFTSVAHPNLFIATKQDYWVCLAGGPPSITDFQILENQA

B1: recombinant human soluble IL-1 type I receptor (receptor, UniProt P14778 18-332, looked up)
chain: LEADKCKEREEKIILVSSANEIDVRPCPLNPNEHKGTITWYKDDSKTPVSTEQASRIHQHKEKLWFVPAKVEDSGHYYCVVRNSSYCLRIKISAKFVENEPNLCYNAQAIFKQKLPVAGDGGLVCPYMEFFKNENNELPKLQWYKDCKPLLLDNIHFSGVKDRLIVMNVAEKHRGNYTCHASYTYLGKQYPITRVIEFITLEENKPTRPVIVSPANETMEVDLGSQIQLICNVTGQLSDIAYWKWNGSVIDEDDPVLGEDYYSVENPANKRRSTLITVLNISEIESRFYKHPFTCFAKNTHGIDAAYIQLIYPVT
notes: Called soluble; also called soluble human IL-1 type I receptor; recombinant human soluble receptor I
- IC50 (recombinant human IL-1β): 0.68 nM

B2: ACZ 885 antibody (antibody, human IgG1, V domains shown)
VH: QVQLVESGGGVVQPGRSLRLSCAASGFTFSVYGMNWVRQAPGKGLEWVAIIWYDGDNQYYADSVKGRFTISRDNSKNTLYLQMNGLRAEDTAVYYCARDLRTGPFDYWGQGTLVTVSS
VL: EIVLTQSPDFQSVTPKEKVTITCRASQSIGSSLHWYQQKPDQSPKLLIKYASQSFSGVPSRFSGSGSGTDFTLTINSLEAEDAAAYYCHQSSSLPFTFGPGTKVDIK
notes: also called NVP-ACZ885
- binding result [1]: no binding
- IC50, inhibition of IL-1β-induced IL-6 secretion from human dermal fibroblasts, cond. medium (NVP-ACZ885 Batch1) [2]: 54 pM and 9.1 ng/ml
- IC50, inhibition of IL-1β-induced IL-6 secretion from human dermal fibroblasts, cond. medium (NVP-ACZ885 Batch2) [2]: 7.4 ng/mL
- binding result (Rec Cynomolgus IL-1β): no binding (tested: 8 nM)
- binding result (Rec Human IL-1α): no binding (tested: 8 nM)
